Data on one substance can be found in patent publication US5804555.

For this test, the target named is commercially available lactoferrin (manufactured by Oleofina Company, Belgium) just as isolated from cow's milk (bovine (cow's milk)) (UniProt P24627).

Substance “commercially available swine pepsin (1:10000; manufactured by Wako Jun-yaku Co., Ltd.) (from UniProt P00791) (enzyme)” registered a hydrolyzing rate of the product of 11.3%.
